The source of these data is patent publication US10065993B2, “Peptides and peptide/active compound conjugates for renal targeting” (MERCK PATENT GMBH, priority 2013, dated 2018).

Ends that are not written are not given here. Peptide text beside a SMILES is read from it. * marks the point of attachment. ξ: configuration not given here. Lipoyl(6ξ) = O=C(CCCCC1CCSS1)*

In data set [1] the test system is kidneys (i.e. proximal tubule cells, PTCs). The following applies: in vivo; cited from earlier work.
The subject of data set [2] is kidney. The data set can be described thus: Scintigraphic / SPECT distribution of radiolabelled peptides and conjugates (kidney selectivity). More on the design: species or system NMRI mice. The conditions noted are these: mouse, in vivo; for kidney specificity: iv. As to the method:
The labelling is carried out using a 1 mM stock solution of the peptide to be labelled in water (dimethyl sulfoxide (DMSO) may have to be added for better solubility). Tyrosine-containing peptides are labelled with iodine-123, iodine-125 or iodine-131 (Perkin-Elmer, Waltham, Mass., USA) by means of the chloramine-T method. To this end, 20 μl of phosphate buffer (0.25 M, pH 7.4) are added to 10 μl of the stock solution, and the desired amount of radioactive iodine is added. For the labelling, 5 μl of chloramine-T (2 mg/ml of H2O) are added. The reaction is carried out for 30 seconds and is subsequently terminated using 10 μl of a saturated methionine solution. In order to separate off free iodine and by-products, the reaction mixture is purified by means of semipreparative HPLC (Chromolith RP-18e, 100×4.6 mm). The separation is carried out using a linear gradient from 0.1% of TFA in water to 0.1% of TFA in acetonitrile in 10 minutes (flow rate: 2 ml/min, UV absorption at 214 nm, γ detection). The solvent is subsequently removed in a rotary evaporator, and the labelled peptide is taken up in the desired buffer.
The tyrosine-containing peptides are labelled with ^125iodine by means of the chloramine-T method. For the labelling, a 1 mM stock solution in water is used. If necessary, DMSO is added for better solubility. To this end, 20 μl of phosphate buffer (0.25 M, pH 7.4) are added to 10 μl of the stock solution, and the desired amount of radioactive iodine is added. The labelling is carried out using 5 μl of chloramine-T (2 mg/ml of H2O). The reaction is carried out for 30 seconds and is subsequently terminated using 10 μl of a saturated methionine solution.
After the labelling, the peptide is purified by means of semi-preparative HPLC in order to remove the excess free iodine and other by-products. 100 μl of the 0.1 mM stock solution are in each case used for the injection. Before the injection, the radioactivity is recorded by means of a Geiger counter. […]

For the compound `C[C@@H](O)[C@@H]1NC(=O)[C@H](CCCCN)NC(=O)[C@@H](Cc2c[nH]c3ccccc23)NC(=O)[C@H](Cc2ccc(O)cc2)NC(=O)[C@@H](NC(=O)[C@@H](Cc2ccccc2)NC(=O)CN2CCN(CC(=O)O)CCN(CC(=O)O)CCN(CC(=O)O)CC2)CSSC[C@@H](C(=O)N[C@H](CO)[C@@H](C)O)NC1=O` [DOTATOC], the “uptake by the kidneys” value in data set [1] is given as “about 20%”.
In the case of `NCCCCC(NC(=O)C(CCC(=O)O)NC(=O)C(CCC(=O)O)NC(=O)C(CCC(=O)O)NC(=O)C(CCCCNC(=O)CCCCC1CCSS1)NC(=O)C(CCCCN)NC(=O)C(CCCCN)NC(=O)C(CCC(=O)O)NC(=O)C(CCC(=O)O)NC(=O)C(CCC(=O)O)NC(=O)C(CCCCNC(=O)CCCCC1CCSS1)NC(=O)C(CCCCN)NC(=O)C(CCCCN)NC(=O)C(CCC(=O)O)NC(=O)C(CCC(=O)O)NC(=O)C(CCC(=O)O)NC(=O)C(CCCCNC(=O)CCCCC1CCSS1)NC(=O)C(CCCCN)NC(=O)C(CCCCN)NC(=O)C(N)Cc1ccc(O)cc1)C(N)=O` (stereo not shown) [y(KKKε(lipoic acid)EEE)3K] (H-YKKK(Lipoyl(6ξ))EEEKKK(Lipoyl(6ξ))EEEKKK(Lipoyl(6ξ))EEEK-NH2; configuration not given here), the kidney specificity result in data set [2] was “high kidney specificity”.
On to “(APASLYN)2: dimer of literature kidney-selective peptide APASLYN (Denby et al.), SEQ ID NO: 90 (APASLYNAPASLYN; not fully specified)”, for which the kidney selectivity result in data set [2] is listed as “already inadequate”.
As to “diacetylcaffeic acid (KKEEE)3K: diacetylcaffeic acid bonded at the N terminal of y(KKEEE)3K (KKEEEKKEEEKKEEEK-NH2; not fully specified (N-terminus))”, the kidney specificity result in data set [2] is on record as “retain their high kidney specificity”.
